Experimental data: paper PMC7269513 (Antimicrobial Agents and Chemotherapy, 2020)
Values joined by “and” are separate entries in the source; they are usually repeats but may differ in a detail not shown here. Identical values can stand only once.

Tested on: O=C(Cc1cccs1)N[C@@H]1C(=O)N2C(C(=O)O)=C(/C=C/c3ccc([N+](=O)[O-])cc3[N+](=O)[O-])CS[C@H]12
Experiment: purified protein, by the assay type

| Substance | Km | kcat | kcat/Km |
| --- | --- | --- | --- |
| (Acinetobacter baumannii) | 62 µM and 28 µM and 34 µM | 357 s⁻¹ and 208 s⁻¹ and 518 s⁻¹ | 5.8e+06 M⁻¹ s⁻¹ and 7.6e+06 M⁻¹ s⁻¹ and 1.5e+07 M⁻¹ s⁻¹ |
| (Enterobacter cloacae) | 100 µM | 479 s⁻¹ | 4.8e+06 M⁻¹ s⁻¹ |
| (Escherichia coli) | 22 µM and 24 µM | 334 s⁻¹ and 341 s⁻¹ | 1.5e+07 M⁻¹ s⁻¹ |
| (Klebsiella pneumoniae) | 29 µM | 406 s⁻¹ | 1.4e+07 M⁻¹ s⁻¹ |
| (Pseudomonas aeruginosa PAO1) | 55 µM | 133 s⁻¹ | 2.4e+06 M⁻¹ s⁻¹ |
| (Serratia marcescens) | 26 µM | 229 s⁻¹ | 8.9e+06 M⁻¹ s⁻¹ |
